Test results published in the supplement of paper PMC9112550, “Optimization of the antimicrobial peptide Bac7 by deep mutational scanning” (BMC Biology, 2022).

system: Escherichia coli TOP10; assay: shrunken log2 fold change of peptide-encoding DNA abundance (4.5 h post-induction vs induction); higher = less antimicrobial activity (less host growth inhibition); settings: time post-induction: 4.5 h; library: site-saturation at positions 5, 18, 19, 20
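Also: peptides expressed intracellularly from a pBAD plasmid library in pooled LB shake-flask culture, induced with 0.3% L-arabinose, DNA abundance read by NGS, three biological replicates, DESeq2 with apeglm shrinkage.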

Point of comparison: RRIRTRPPRLPRPRPRPCREPRP, “shrunken log2 fold change” value 0.0664. Against it:
- RRIRIRPPRLPRPRPRPAMIPRP — within 0.2 log units, 0.0156
- RRIRPRPPRLPRPRPRPAVIPRP — within 0.2 log units, -0.007
- RRIRCRPPRLPRPRPRPWTFPRP — within 0.2 log units, -0.126
- RRIRARPPRLPRPRPRPWIVPRP — within 0.2 log units, -0.0598
- RRIRLRPPRLPRPRPRPFQDPRP — within 0.2 log units, 0.000192
- RRIRERPPRLPRPRPRPQPFPRP — within 0.2 log units, 0.217
- RRIRARPPRLPRPRPRPYDFPRP — lower, -0.772
- RRIRYRPPRLPRPRPRPPKWPRP — within 0.2 log units, 0.223
- RRIRWRPPRLPRPRPRPRLWPRP — higher, 0.414
- RRIRGRPPRLPRPRPRPNVRPRP — within 0.2 log units, 0.265
- RRIRQRPPRLPRPRPRPIRWPRP — within 0.2 log units, -0.0554
- RRIRGRPPRLPRPRPRPEMSPRP — within 0.2 log units, 0.25
- RRIRERPPRLPRPRPRPQRRPRP — within 0.2 log units, -0.0022
- RRIRVRPPRLPRPRPRPCAEPRP — within 0.2 log units, -0.0931
- RRIRFRPPRLPRPRPRPKRQPRP — higher, 0.401
- RRIRFRPPRLPRPRPRPEVSPRP — lower, -0.149
- RRIRVRPPRLPRPRPRPGSLPRP — lower, -0.363
- RRIRLRPPRLPRPRPRPGGLPRP — within 0.2 log units, 0.097
- RRIRHRPPRLPRPRPRPQSHPRP — lower, -0.167
- RRIRNRPPRLPRPRPRPPKAPRP — within 0.2 log units, 0.00248
- RRIRHRPPRLPRPRPRPTCIPRP — lower, -0.147
- RRIRVRPPRLPRPRPRPAHIPRP — within 0.2 log units, -0.0203
- RRIRLRPPRLPRPRPRPHCFPRP — within 0.2 log units, -0.0782
- RRIRVRPPRLPRPRPRPSCQPRP — lower, -0.643
- RRIRARPPRLPRPRPRPTKRPRP — within 0.2 log units, 0.247
- RRIRMRPPRLPRPRPRPLQWPRP — within 0.2 log units, 0.104
- RRIRWRPPRLPRPRPRPVCEPRP — higher, 0.825
- RRIRERPPRLPRPRPRPGLIPRP — within 0.2 log units, 0.101
- RRIRVRPPRLPRPRPRPWWEPRP — within 0.2 log units, 0.161
- RRIRVRPPRLPRPRPRPQPEPRP — within 0.2 log units, 0.23
- RRIRRRPPRLPRPRPRPECTPRP — higher, 0.517
- RRIRYRPPRLPRPRPRPSTNPRP — lower, -0.757
- RRIRDRPPRLPRPRPRPIHFPRP — within 0.2 log units, -0.0728
- RRIRDRPPRLPRPRPRPRRNPRP — within 0.2 log units, 0.225
- RRIRCRPPRLPRPRPRPKGQPRP — within 0.2 log units, 0.0213
- RRIRCRPPRLPRPRPRPVLMPRP — within 0.2 log units, -0.00563
- RRIRMRPPRLPRPRPRPKWMPRP — within 0.2 log units, 0.21
- RRIRVRPPRLPRPRPRPQSTPRP — within 0.2 log units, 0.00487
- RRIRTRPPRLPRPRPRPNNMPRP — lower, -0.346
- RRIRARPPRLPRPRPRPDQRPRP — higher, 0.267
- RRIRKRPPRLPRPRPRPQEFPRP — within 0.2 log units, -0.0241
- RRIRMRPPRLPRPRPRPFEIPRP — within 0.2 log units, 0.0739
- RRIRHRPPRLPRPRPRPDIIPRP — within 0.2 log units, -0.0233
- RRIRCRPPRLPRPRPRPHNFPRP — lower, -1.01
- RRIRKRPPRLPRPRPRPHEQPRP — within 0.2 log units, -0.00968
- RRIRVRPPRLPRPRPRPKACPRP — within 0.2 log units, 0.153
- RRIRHRPPRLPRPRPRPPMDPRP — lower, -0.309
- RRIRDRPPRLPRPRPRPAESPRP — within 0.2 log units, -0.0371
- RRIRFRPPRLPRPRPRPQFAPRP — within 0.2 log units, 0.0456
- RRIRVRPPRLPRPRPRPPIAPRP — higher, 0.322
- RRIRFRPPRLPRPRPRPDHYPRP — lower, -0.184
- RRIRRRPPRLPRPRPRPSDHPRP — within 0.2 log units, -0.0811
- RRIRWRPPRLPRPRPRPIDLPRP — within 0.2 log units, 0.0151
- RRIRTRPPRLPRPRPRPYAYPRP — within 0.2 log units, -0.0309
- RRIRERPPRLPRPRPRPSCYPRP — lower, -0.941
- RRIRNRPPRLPRPRPRPTNKPRP — lower, -0.468
- RRIRWRPPRLPRPRPRPSCIPRP — lower, -0.261
- RRIRGRPPRLPRPRPRPESNPRP — higher, 2
- RRIRKRPPRLPRPRPRPERWPRP — higher, 1.15
- RRIRLRPPRLPRPRPRPIIGPRP — within 0.2 log units, -0.0425
- RRIRHRPPRLPRPRPRPWQLPRP — within 0.2 log units, -0.016
- RRIRMRPPRLPRPRPRPRQQPRP — higher, 0.854
- RRIRHRPPRLPRPRPRPAYHPRP — lower, -0.274
- RRIRIRPPRLPRPRPRPCRNPRP — lower, -0.604
- RRIRWRPPRLPRPRPRPSNAPRP — within 0.2 log units, -0.0613
- RRIRPRPPRLPRPRPRPVQTPRP — within 0.2 log units, 0.00686
- RRIRMRPPRLPRPRPRPCYNPRP — lower, -0.247
- RRIRSRPPRLPRPRPRPPYNPRP — lower, -0.602
- RRIRGRPPRLPRPRPRPRISPRP — higher, 0.353
- RRIRMRPPRLPRPRPRPMSTPRP — within 0.2 log units, 0.0207
- RRIRLRPPRLPRPRPRPYGRPRP — lower, -0.2
- RRIRERPPRLPRPRPRPDHAPRP — lower, -0.318
- RRIRRRPPRLPRPRPRPRPMPRP — higher, 0.76
- RRIRMRPPRLPRPRPRPWHNPRP — within 0.2 log units, -0.0135
- RRIRWRPPRLPRPRPRPPRIPRP — within 0.2 log units, 0.245
- RRIRHRPPRLPRPRPRPQGFPRP — within 0.2 log units, -0.00136
- RRIRARPPRLPRPRPRPSQFPRP — within 0.2 log units, -0.0956
- RRIRGRPPRLPRPRPRPLYIPRP — lower, -0.321
- RRIRIRPPRLPRPRPRPRCTPRP — lower, -0.141
- RRIRTRPPRLPRPRPRPPKMPRP — within 0.2 log units, 0.18
- RRIRERPPRLPRPRPRPFQFPRP — within 0.2 log units, -0.062
- RRIRLRPPRLPRPRPRPVMDPRP — within 0.2 log units, -0.0398
- RRIRCRPPRLPRPRPRPQLAPRP — within 0.2 log units, 0.163
- RRIRYRPPRLPRPRPRPSQHPRP — lower, -0.683
- RRIRARPPRLPRPRPRPGLGPRP — higher, 1.16
- RRIRVRPPRLPRPRPRPDPHPRP — lower, -0.16
- RRIRWRPPRLPRPRPRPGQPPRP — higher, 0.326
- RRIRNRPPRLPRPRPRPWRYPRP — within 0.2 log units, -0.0121
- RRIRNRPPRLPRPRPRPERDPRP — within 0.2 log units, 0.157
- RRIRDRPPRLPRPRPRPENFPRP — within 0.2 log units, 0.043
- RRIRHRPPRLPRPRPRPWWIPRP — lower, -0.177
- RRIRQRPPRLPRPRPRPWWHPRP — within 0.2 log units, 0.00797
- RRIRSRPPRLPRPRPRPNQEPRP — within 0.2 log units, 0.0169
- RRIRMRPPRLPRPRPRPLLSPRP — within 0.2 log units, 0.17
- RRIRNRPPRLPRPRPRPNSHPRP — lower, -0.858
- RRIRTRPPRLPRPRPRPLMRPRP — within 0.2 log units, 0.216
- RRIRVRPPRLPRPRPRPHAYPRP — lower, -0.473
- RRIRPRPPRLPRPRPRPHGYPRP — within 0.2 log units, -0.0483
- RRIRHRPPRLPRPRPRPHDWPRP — within 0.2 log units, 0.0241
- RRIRYRPPRLPRPRPRPSALPRP — lower, -0.638
- RRIRSRPPRLPRPRPRPNYQPRP — lower, -0.199
- RRIRLRPPRLPRPRPRPEFWPRP — higher, 0.417
- RRIRCRPPRLPRPRPRPGLLPRP — within 0.2 log units, 0.0187
- RRIRHRPPRLPRPRPRPIKKPRP — within 0.2 log units, -0.06
- RRIRGRPPRLPRPRPRPEDFPRP — within 0.2 log units, 0.149
- RRIRERPPRLPRPRPRPQLGPRP — higher, 0.329
- RRIRERPPRLPRPRPRPHICPRP — within 0.2 log units, 0.0721
- RRIRERPPRLPRPRPRPGAGPRP — higher, 0.395
- RRIRCRPPRLPRPRPRPISWPRP — within 0.2 log units, -0.105
- RRIRLRPPRLPRPRPRPYFWPRP — within 0.2 log units, -0.0237
- RRIRERPPRLPRPRPRPLFIPRP — within 0.2 log units, -0.0618
- RRIRHRPPRLPRPRPRPHAPPRP — within 0.2 log units, -0.0972
- RRIRIRPPRLPRPRPRPTAFPRP — lower, -0.532
- RRIRERPPRLPRPRPRPNPHPRP — lower, -0.234
- RRIRFRPPRLPRPRPRPPDTPRP — within 0.2 log units, 0.254
- RRIRVRPPRLPRPRPRPGKSPRP — within 0.2 log units, -0.0236
- RRIRVRPPRLPRPRPRPPKPPRP — within 0.2 log units, 0.107
- RRIRGRPPRLPRPRPRPIGIPRP — lower, -0.159
- RRIRGRPPRLPRPRPRPLPIPRP — within 0.2 log units, 0.0433
- RRIRNRPPRLPRPRPRPSVHPRP — lower, -0.311
- RRIRERPPRLPRPRPRPASWPRP — within 0.2 log units, 0.0747
- RRIRSRPPRLPRPRPRPSWTPRP — lower, -0.299
- RRIRFRPPRLPRPRPRPMQDPRP — within 0.2 log units, -0.0947
- RRIRWRPPRLPRPRPRPNWSPRP — within 0.2 log units, -0.0695
- RRIRERPPRLPRPRPRPAWWPRP — within 0.2 log units, 0.00222
- RRIRSRPPRLPRPRPRPQWWPRP — within 0.2 log units, 0.0138
- RRIRLRPPRLPRPRPRPVQDPRP — within 0.2 log units, -0.105
- RRIRVRPPRLPRPRPRPHRFPRP — within 0.2 log units, 0.0259
- RRIRTRPPRLPRPRPRPHCYPRP — lower, -0.136
- RRIRQRPPRLPRPRPRPDWNPRP — lower, -0.189
- RRIRKRPPRLPRPRPRPICGPRP — within 0.2 log units, 0.0699
- RRIRGRPPRLPRPRPRPNIQPRP — higher, 0.398
- RRIRQRPPRLPRPRPRPWSYPRP — within 0.2 log units, -0.106
- RRIRARPPRLPRPRPRPICWPRP — within 0.2 log units, 0.231
- RRIRCRPPRLPRPRPRPHFKPRP — lower, -0.368
- RRIRLRPPRLPRPRPRPLIWPRP — within 0.2 log units, 0.0251
- RRIRMRPPRLPRPRPRPECLPRP — higher, 1.6
- RRIRKRPPRLPRPRPRPAYAPRP — within 0.2 log units, -0.085
- RRIRVRPPRLPRPRPRPCIFPRP — within 0.2 log units, -0.0604
- RRIRSRPPRLPRPRPRPYWQPRP — lower, -0.551
- RRIRYRPPRLPRPRPRPRAMPRP — within 0.2 log units, -0.0749
- RRIRQRPPRLPRPRPRPHHCPRP — lower, -0.652
- RRIRFRPPRLPRPRPRPANFPRP — within 0.2 log units, 0.151
- RRIRYRPPRLPRPRPRPHWPPRP — lower, -0.322
- RRIRIRPPRLPRPRPRPDDQPRP — within 0.2 log units, 0.0121
- RRIRHRPPRLPRPRPRPLLMPRP — within 0.2 log units, -0.0151
- RRIRIRPPRLPRPRPRPKMLPRP — within 0.2 log units, 0.154
- RRIRFRPPRLPRPRPRPIVWPRP — within 0.2 log units, 0.0539
- RRIRNRPPRLPRPRPRPFSIPRP — within 0.2 log units, 0.000741
